Consider one protein from article doi:10.1101/2022.05.16.492121 (bioRxiv, 2022).

The series deals with the molecule itself. Briefly: near-TIRF microscopy.

B1: Saccharomyces cerevisiae septin complex (Cdc3, Cdc10, Cdc11, Cdc12), polymerizable hetero-oligomer (complex)
chain 1: MSLKEEQVSIKQDPEQEERQHDQFNDVQIKQESQDHDGVDSQYTNGTQNDDSERFEAAESDVKVEPGLGMGITSSQSEKGQVLPDQPEIKFIRRQINGYVGFANLPKQWHRRSIKNGFSFNLLCVGPDGIGKTTLMKTLFNNDDIEANLVKDYEEELANDQEEEEGQGEGHENQSQEQRHKVKIKSYESVIEENGVKLNLNVIDTEGFGDFLNNDQKSWDPIIKEIDSRFDQYLDAENKINRHSINDKRIHACLYFIEPTGHYLKPLDLKFMQSVYEKCNLIPVIAKSDILTDEEILSFKKTIMNQLIQSNIELFKPPIYSNDDAENSHLSERLFSSLPYAVIGSNDIVENYSGNQVRGRSYPWGVIEVDNDNHSDFNLLKNLLIKQFMEELKERTSKILYENYRSSKLAKLGIKQDNSVFKEFDPISKQQEEKTLHEAKLAKLEIEMKTVFQQKVSEKEKKLQKSETELFARHKEMKEKLTKQLKALEDKKKQLELSINSASPNVNHSPVPTKKKGFLR
chain 2: MDPLSSVQPASYVGFDTITNQIEHRLLKKGFQFNIMVVGQSGLGKSTLINTLFASHLIDSATGDDISALPVTKTTEMKISTHTLVEDRVRLNINVIDTPGFGDFIDNSKAWEPIVKYIKEQHSQYLRKELTAQRERFITDTRVHAILYFLQPNGKELSRLDVEALKRLTEIANVIPVIGKSDTLTLDERTEFRELIQNEFEKYNFKIYPYDSEELTDEELELNRSVRSIIPFAVVGSENEIEINGETFRGRKTRWSAINVEDINQCDFVYLREFLIRTHLQDLIETTSYIHYEGFRARQLIALKENANSRSSAHMSSNAIQR
chain 3: MSGIIDASSALRKRKHLKRGITFTVMIVGQSGSGRSTFINTLCGQQVVDTSTTILLPTDTSTEIDLQLREETVELEDDEGVKIQLNIIDTPGFGDSLDNSPSFEIISDYIRHQYDEILLEESRVRRNPRFKDGRVHCCLYLINPTGHGLKEIDVEFIRQLGSLVNIIPVISKSDSLTRDELKLNKKLIMEDIDRWNLPIYNFPFDEDEISDEDYETNMYLRTLLPFAIIGSNEVYEMGGDVGTIRGRKYPWGILDVEDSSISDFVILRNALLISHLHDLKNYTHEILYERYRTEALSGESVAAESIRPNLTKLNGSSSSSTTTRRNTNPFKQSNNINNDVLNPASDMHGQSTGENNETYMTREEQIRLEEERLKAFEERVQQELLLKRQELLQREKELREIEARLEKEAKIKQEE
chain 4: MSAATATAAPVPPPVGISNLPNQRYKIVNEEGGTFTVMLCGESGLGKTTFINTLFQTVLKRADGQQHRQEPIRKTVEIDITRALLEEKHFELRVNVIDTPGFGDNVNNNKAWQPLVDFIDDQHDSYMRQEQQPYRTKKFDLRVHAVLYFIRPTGHGLKPIDIETMKRLSTRANLIPVIAKADTLTAQELQQFKSRIRQVIEAQEIRIFTPPLDADSKEDAKSGSNPDSAAVEHARQLIEAMPFAIVGSEKKFDNGQGTQVVARKYPWGLVEIENDSHCDFRKLRALLLRTYLLDLISTTQEMHYETYRRLRLEGHENTGEGNEDFTLPAIAPARKLSHNPRYKEEENALKKYFTDQVKAEEQRFRQWEQNIVNERIRLNGDLEEIQGKVKKLEEQVKSLQVKKSHLK
In the case of B1, the binding result is recorded as “binds”.
